Results as given in patent US20140134170A1, “USE OF INHIBITORS OF EGFR-FAMILY RECEPTORS IN THE TREATMENT OF HORMONE REFRACTORY BREAST CANCERS” (MERRIMACK PHARMACEUTICALS, INC., priority 2011, published 2014).

B1: MM-121: fully human anti-ErbB3 monoclonal antibody; VH and VL SEQ ID NOs: 1 and 2; heavy and light chains SEQ ID NOs 42 and 43 (antibody, listed as Homo sapiens)
heavy: EVQLLESGGGLVQPGGSLRLSCAASGFTFSHYVMAWVRQAPGKGLEWVSSISSSGGWTLYADSVKGRFTISRDNSKNTLYLQMNSLRAEDTAVYYCTRGLKMATIFDYWGQGTLVTVSSASTKGPSVFPLAPCSRSTSESTAALGCLVKDYFPEPVTVSWNSGALTSGVHTFPAVLQSSGLYSLSSVVTVPSSNFGTQTYTCNVDHKPSNTKVDKTVERKCCVECPPCPAPPVAGPSVFLFPPKPKDTLMISRTPEVTCVVVDVSHEDPEVQFNWYVDGVEVHNAKTKPREEQFNSTFRVVSVLTVVHQDWLNGKEYKCKVSNKGLPAPIEKTISKTKGQPREPQVYTLPPSREEMTKNQVSLTCLVKGFYPSDIAVEWESNGQPENNYKTTPPMLDSDGSFFLYSKLTVDKSRWQQGNVFSCSVMHEALHNHYTQKSLSLSPGK
light: QSALTQPASVSGSPGQSITISCTGTSSDVGSYNVVSWYQQHPGKAPKLIIYEVSQRPSGVSNRFSGSKSGNTASLTISGLQTEDEADYYCCSYAGSSIFVIFGGGTKVTVLGQPKAAPSVTLFPPSSEELQANKATLVCLVSDFYPGAVTVAWKADGSPVKVGVETTKPSKQSNNKYAASSYLSLTPEQWKSHRSYSCRVTHEGSTVEKTVAPAECS

Key:
MCF-7CA tumors = experiment: Letrozole-resistant MCF-7CA intratumoral aromatase xenograft model; type: in vivo, mice; conditions: for tumor growth during initial treatment: MM-121 600 μg Q3D i.p., letrozole 10 μg/mouse/day, treatment from the start; for tumor volume after acquired letrozole resistance: letrozole-resistant tumors re-grouped at about 14 weeks, followed to 19 weeks
Description: To investigate the mechanism of AI resistance, a xenograft model was developed that corresponds to ER+ postmenopausal breast cancer. Tumors for this intratumoral aromatase xenograft model are grown from MCF7 human breast adenocarcinoma cells that have been stably transfected with a human placental aromatase gene to provide a non-ovarian source of estrogen production in ovariectomized athymic mice (MCF-7CA, see e.g. Brodie et al., Clinical Cancer Research 884s Vol. 11, 884s-888s, Jan. 15, 2005 (Suppl.)). Sufficient estrogen is produced (from aromatization of injected androstenedione) by the MCF7-CA cells to stimulate their proliferation and tumor formation. This is a model of a postmenopausal breast cancer patient with tumors that express aromatase and are free of gonadotropin feedback regulation.
MCF-7CA cells were cultured in Eagle's minimum essential medium containing 5% fetal bovine serum and neomycin. The culture medium was changed twice weekly. Subconfluent MCF-7CA cells were scraped into Hank's solution and centrifuged at 1,000 rpm for 2 min at 4° C. The cells were then resuspended in Matrigel™ (10 mg/ml) to make a cell suspension of 2-5×10^7 cells/ml. Ovariectomized female BALB/c athymic mice 4-6 weeks of age (20-22 g body weight) were housed in a pathogen-free environment under controlled conditions of light and humidity and received food and water ad libitum. Each mouse was inoculated subcutaneously (s.c.) with 0.1 ml of the cell suspension. Animals were then injected s.c. daily with 0.1 mg androstenedione/mouse. Growth rates were determined by measuring the tumors with calipers weekly. Tumor volumes were calculated according to the formula for a sphere (4/3 r12. r 2). When tumors reached a measurable size, mice were divided into groups of 10 animals with equivalent tumor volumes (300 mm^3). Mice were treated with 0.1 ml compounds in 0.3% hydroxypropylcellulose (HPC) for 6 weeks.
Tumors were measured weekly and tumor volume was calculated. Mice were sacrificed if tumors continued to grow to volumes of greater than about 1400-1700 mm^3.

[1] = system: estrogen receptor alpha (pER, ser 167 and ser 118); experiment: Western blot/densitometry for phosphorylated estrogen receptor in ligand-stimulated MCF7 cells; type: cell-based, human; conditions: for phosphorylation of the estrogen receptor in stimulated cells: MCF7 cells without MM-121, stimulated 30 minutes, betacellulin relative to heregulin
Description: (§1) FIG. 1 comprises images of western blots of a gel of lysates from untreated control cells (“C”), cells pretreated with (“MM121”) or without pretreatment with MM-121 that were stimulated with heregulin beta 1 (“HRG”), betacellulin (“BTC”), or estrogen (“E2”).
FIG. 2 is a graph showing densitometry results from the relevant (pER) band in each of the control (“Con.”), heregulin (“HRG”), betacellulin (“BTC”), heregulin plus MM-121 (“HRG+MM121”) and betacellulin plus MM-121 (“BTC+MM121”) lanes in FIG. 1. Band density was normalized to GAPDH density and the normalized density (Y-axis) is shown for control and stimulated cells (both with and without MM-121 pretreatment) as indicated on the X-axis. The arrowhead between the HRG and BTC lanes indicates the pER band in the HRG lane.
(§2) MCF7 cells are either untreated or pretreated with MM-121 (250 nM) for 1 hour. Cells are then stimulated with heregulin betal (EGF domain, 10 nM R&D systems), betacellulin (20 nM, R&D systems) or estrogen (beta estradiol—100 nM, Sigma) for 30 minutes, or left unstimulated. Lysates of the cells are analyzed by western blot probed for pER and for pErbB3.
(§3) Cells were either untreated or pretreated with MM-121. Untreated and pretreated cells were stimulated with heregulin, betacellulin, or estrogen. Cell lysates were analyzed by western blot for phosphorylated forms of ErbB3 and estrogen receptor.

ErbB3 (pErbB3) = target: T1, ErbB3 (pErbB3) (Homo sapiens, UniProt P21860); experiment: Western blot for phosphorylated ErbB3 in ligand-stimulated MCF7 cells; type: cell-based; conditions: for phosphorylation of ErbB3 in stimulated cells: MCF7 cells without MM-121, stimulated 30 minutes, betacellulin relative to heregulin
T1 construct: endogenous in cells; host or cells: MCF7
Description: as §1, §2, §3

[2] = system: TAMR-1, TAMR-7, or TAMR-8 cells (tamoxifen-resistant human mammary carcinoma xenografts); experiment: Tamoxifen-resistant MCF7 variant xenografts, MM-121 monotherapy; type: in vivo; conditions: 600 μg per mouse IP every three days; TAMR xenografts in nude mice
Description: Analyses of the anti-tumor efficacy and tolerability of MM-121 treatment of ER+ hormone refractory mammary tumor-bearing mice are carried out using xenografts of tamoxifen-resistant variants of MCF7 human mammary carcinoma cells. Tamoxifen-resistant human mammary carcinoma cell lines TAMR-1, TAMR-7, and TAMR-8 cells are obtained from the laboratory of A. E. Lykkesfeldt (Department of Tumor Endocrinology, Division for Cancer Biology, Danish Cancer Society. Strandboulevarden 49, DK-2100 Copenhagen 0, Denmark). These are grown as xenografts in female athymic nu+/nu+ nude mice obtained from Charles River Laboratories International. […]
To investigate anti-tumor efficacy in monotherapy, MM-121 or vehicle control (100 μL) is given to tumor-bearing mice (i.e., after 14 days of tumor growth following injection of cells) at 600 μg per mouse (MM-121 as a 6 mg/mL solution in PBS) by IP injection every three days. […] Efficacy is determined by comparing tumor growth between the antibody-treated mice and the vehicle control mice and is expressed as the experimental to control ratio of median relative tumor volumes (T/C value). […]
Mice are randomized and therapy begins when a sufficient number of individual tumors have grown to a volume of approximately 200 mm^3. Tumors are measured (L x W) by digital caliper measurement and the tumor volume is calculated using the formula π/6 (W^2×L). […]

Molecule	tumor growth during initial treatment (MCF-7CA tumors)	time to letrozole resistance (tumor volume increased to 600 mm^3) (MCF-7CA tumors; daily letrozole 10 μg/mouse/day)	tumor volume after acquired letrozole resistance (MCF-7CA tumors)	phosphorylation of the estrogen receptor in stimulated cells [1]	phosphorylation of ErbB3 in stimulated cells (ErbB3 (pErbB3))	level of ER phosphorylation relative to estrogen stimulation ([1]; MCF7 cells, heregulin 10 nM vs beta estradiol 100 nM, 30 minutes)	reduction in the amount of pER ([1]; MCF7 cells pretreated with MM-121 250 nM for 1 hour, heregulin 10 nM for 30 minutes, densitometry normalized to GAPDH)	tumor growth [2]	reduction in the amount of pErbB3 (ErbB3 (pErbB3); MCF7 cells pretreated with MM-121 250 nM for 1 hour, heregulin 10 nM for 30 minutes)
N#Cc1ccc(C(c2ccc(C#N)cc2)n2cncn2)cc1 [letrozole]	progressed more slowly	about 14 weeks	continued to increase in volume over time	–	–	–	–	–	–
betacellulin: betacellulin (R&D systems), EGF-like stimulating ligand	–	–	–	to a lesser extent (about ⅔ less)	to a lesser extent (about ⅔ less)	–	–	–	–
heregulin: heregulin beta 1 (EGF domain, R&D systems), stimulating ligand	–	–	–	exhibited phosphorylation of both the estrogen receptor and ErbB3	exhibited phosphorylation of both the estrogen receptor and ErbB3	at least four-fold	–	–	–
B1	grew rapidly over the course of 5 weeks	–	continued to increase in volume over time	–	–	–	about ⅔	inhibits or stops tumor growth, and in some cases reduces tumor size	about ⅔
